Holding throughout (conditions): tags: MBP fusion (pMAL); label: 5'-biotin sense strand (SPR)
One data set concerns the target ZFPr (synthetic). Nature of the data set: SPR; HBS-EP; EMSA na. A general note: SPR reads the build-up and loss of mass on a sensor chip optically.
For the next data set, the target named is ZFPa (synthetic). Nature of the data set: SPR; HBS-EP, 1:1 with drifting baseline.
The target of another data set is ZFPu (synthetic). Kind of data set: SPR; HBS-EP; EMSA na.
The target of the next data set is ZFPd (synthetic). Nature of the data set: SPR; HBS-EP; text elsewhere calls ZFPe the picomolar binder.
ZFPd (synthetic), sequence (chain, as listed by the source): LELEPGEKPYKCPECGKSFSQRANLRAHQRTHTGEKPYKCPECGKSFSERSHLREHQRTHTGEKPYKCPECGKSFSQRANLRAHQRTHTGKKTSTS
Another data set deals with ZFPb (synthetic). Kind of data set: SPR; HBS-EP, 1:1 with drifting baseline.
ZFPb (synthetic), sequence (chain, as listed by the source): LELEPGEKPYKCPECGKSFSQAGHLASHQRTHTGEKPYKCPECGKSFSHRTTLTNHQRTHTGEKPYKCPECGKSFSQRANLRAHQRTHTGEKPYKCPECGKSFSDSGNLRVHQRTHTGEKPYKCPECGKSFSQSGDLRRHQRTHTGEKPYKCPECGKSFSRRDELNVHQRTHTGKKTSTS
The next data set concerns the target ZFPe (synthetic). Nature of the data set: SPR; HBS-EP; text elsewhere calls ZFPe the picomolar binder.
In another data set the target is ZFPk (synthetic). Kind of data set: SPR; HBS-EP.
ZFPk (synthetic), sequence (chain, as listed by the source): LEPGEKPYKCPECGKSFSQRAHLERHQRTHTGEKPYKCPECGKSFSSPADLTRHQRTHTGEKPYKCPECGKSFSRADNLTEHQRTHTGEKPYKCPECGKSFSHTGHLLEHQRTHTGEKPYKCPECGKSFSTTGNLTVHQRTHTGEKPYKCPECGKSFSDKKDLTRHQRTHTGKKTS
A further data set addresses ZFPf (synthetic). Nature of the data set: SPR; HBS-EP, 1:1 Langmuir.
A further data set has as its target ZFPt (synthetic). Nature of the data set: SPR; HBS-EP; EMSA na.
For a further data set, the target named is ZFPq (synthetic). Nature of the data set: SPR; HBS-EP; EMSA na.
ZFPq (synthetic), sequence (chain, as listed by the source): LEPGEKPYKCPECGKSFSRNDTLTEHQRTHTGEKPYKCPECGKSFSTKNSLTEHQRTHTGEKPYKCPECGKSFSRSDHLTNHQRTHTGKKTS
The target of another data set is ZFPn (synthetic). Kind of data set: SPR; HBS-EP.
ZFPn (synthetic), sequence (chain, as listed by the source): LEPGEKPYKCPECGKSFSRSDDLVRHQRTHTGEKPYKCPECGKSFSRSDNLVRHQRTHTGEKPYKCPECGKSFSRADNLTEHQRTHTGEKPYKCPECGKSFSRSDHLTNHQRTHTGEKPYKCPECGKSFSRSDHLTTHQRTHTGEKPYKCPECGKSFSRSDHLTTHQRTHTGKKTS
In a further data set the target is ZFPc (synthetic). Kind of data set: SPR; HBS-EP, 1:1 with drifting baseline.
ZFPc (synthetic), sequence (chain, as listed by the source): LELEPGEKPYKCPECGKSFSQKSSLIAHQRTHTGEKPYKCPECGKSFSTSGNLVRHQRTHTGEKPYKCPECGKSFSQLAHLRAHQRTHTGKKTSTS

Usually Kd stands for the concentration at which binding is half-saturated. High values mean weaker binding, low ones tighter binding.

ZFPr (synthetic), sequence (chain, as listed by the source): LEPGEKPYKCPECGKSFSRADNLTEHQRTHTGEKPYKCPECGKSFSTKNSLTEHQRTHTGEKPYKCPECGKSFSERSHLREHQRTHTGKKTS
ZFPa (synthetic), sequence (chain, as listed by the source): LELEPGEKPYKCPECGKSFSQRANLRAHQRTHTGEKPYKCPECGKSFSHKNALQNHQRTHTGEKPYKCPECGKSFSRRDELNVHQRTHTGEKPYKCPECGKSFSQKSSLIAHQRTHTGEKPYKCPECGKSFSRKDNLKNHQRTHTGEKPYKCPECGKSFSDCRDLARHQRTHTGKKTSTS
ZFPu (synthetic), sequence (chain, as listed by the source): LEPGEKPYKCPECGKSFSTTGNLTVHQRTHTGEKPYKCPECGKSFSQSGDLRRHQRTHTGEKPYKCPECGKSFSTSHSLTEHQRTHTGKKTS
ZFPt (synthetic), sequence (chain, as listed by the source): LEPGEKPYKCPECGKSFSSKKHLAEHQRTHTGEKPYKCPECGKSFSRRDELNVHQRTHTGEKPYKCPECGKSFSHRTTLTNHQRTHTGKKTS
ZFPf (synthetic), sequence (chain, as listed by the source): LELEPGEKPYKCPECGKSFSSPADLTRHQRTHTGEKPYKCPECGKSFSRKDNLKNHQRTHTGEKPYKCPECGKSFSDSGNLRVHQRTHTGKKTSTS
ZFPe (synthetic), sequence (chain, as listed by the source): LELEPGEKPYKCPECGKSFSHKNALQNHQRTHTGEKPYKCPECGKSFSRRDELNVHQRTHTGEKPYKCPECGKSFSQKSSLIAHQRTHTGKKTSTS

B1: ZFPr target oligo (dsDNA)
DNA 1: AGTACTAGCCCTCAGAGTACT
DNA 2: AGTACTCTGAGGGCTAGTACT
B1: in the data set with ZFPr, the Kd amounted to 502 nM.

B2: ZFPa target oligo (dsDNA)
DNA 1: AGTACTGCCAAGATAATGATTAAAAGTACT
DNA 2: AGTACTTTTAATCATTATCTTGGCAGTACT
B2 showed a Kd in the data set with ZFPa of 12.3 nM.

B3: ZFPu target oligo (dsDNA)
DNA 1: AGTACTCCAGCAAATAGTACT
DNA 2: AGTACTATTTGCTGGAGTACT
Consider B3, for which the affinity with ZFPu, expressed as Kd, was 2470 nM.

B4: ZFPd target oligo (dsDNA)
DNA 1: AGTACTAAAAGCAAAAGTACT
DNA 2: AGTACTTTTGCTTTTAGTACT
Regarding B4, the equilibrium dissociation constant (Kd) with ZFPd turned out to be 0.471 nM.

B5: ZFPb target oligo (dsDNA)
DNA 1: AGTACTATGGCAAACAAAAGTTGAAGTACT
DNA 2: AGTACTTCAACTTTTGTTTGCCATAGTACT
As for B5, in the data set with ZFPb, the Kd came to 40.2 nM.

B6: ZFPe target oligo (dsDNA)
DNA 1: AGTACTATAATGATTAGTACT
DNA 2: AGTACTAATCATTATAGTACT
In turn, B6 registered a dissociation constant (Kd) in the data set with ZFPe of 67.1 nM.

B7: ZFPk target oligo (dsDNA)
DNA 1: AGTACTACCAATCGCCAGACAGGAAGTACT
DNA 2: AGTACTTCCTGTCTGGCGATTGGTAGTACT
With B7, binding in the data set with ZFPk was characterised by a dissociation constant (Kd) of 5.14 nM.

B8: ZFPf target oligo (dsDNA)
DNA 1: AGTACTAACAAGACAAGTACT
DNA 2: AGTACTTGTCTTGTTAGTACT
For B8, in the data set with ZFPf, the dissociation constant (Kd) amounted to 185000 nM.

B9: ZFPt target oligo (dsDNA)
DNA 1: AGTACTAGTATGCCCAGTACT
DNA 2: AGTACTGGGCATACTAGTACT
In the data set with ZFPt, B9 returned a Kd of 1070 nM.

B10: ZFPq target oligo (dsDNA)
DNA 1: AGTACTAGGCCTCCGAGTACT
DNA 2: AGTACTCGGAGGCCTAGTACT
Consider B10, for which binding in the data set with ZFPq was characterised by a dissociation constant (Kd) of 1290 nM.

B11: ZFPn target oligo (dsDNA)
DNA 1: AGTACTTGGTGGAGGCAGGAGGCGAGTACT
DNA 2: AGTACTCGCCTCCTGCCTCCACCAAGTACT
For B11, binding with ZFPn was put at a Kd of 69.4 nM.

B12: ZFPc target oligo (dsDNA)
DNA 1: AGTACTAGAGATATAAGTACT
DNA 2: AGTACTTATATCTCTAGTACT
Consider B12, for which the Kd with ZFPc is 99 nM.
